B1: 2B3 (VHH)
VHH: QVQLVESGGGSVQAGGSLRLSCAASGNTFSFSTYCMGWFRQSPGKEREGSLATIYDGSTAYAGSVKGRFTISVDNAKNILYLQMNNLKPEDTAMYYCAAAKYCMFWSDPSYWGQGTQVTVSS
B2: 4E9V0 (VHH)
VHH: QVQLVESGGGSVQAGGSLRLSCAASGDFYCMAWFRQAPGKEREGVATIRSGGRSTYYADSVKGRFTISKDNAKDTLYLQMNSLKPEDTAMYYCAVGVDGNCRNYWGQGTQVTVSS
B3: dupilumab (antibody, V domains shown)
VH: EVQLVESGGGLEQPGGSLRLSCAGSGFTFRDYAMTWVRQAPGKGLEWVSSISGSGGNTYYADSVKGRFTISRDNSKNTLYLQMNSLRAEDTAVYYCAKDRLSITIRPRYYGLDVWGQGTTVTVSS
VL: DIVMTQSPLSLPVTPGEPASISCRSSQSLLYSIGYNYLDWYLQKSGQSPQLLIYLGSNRASGVPDRFSGSGSGTDFTLKISRVEAEDVGFYYCMQALQTPYTFGQGTKLEIKR
B4: reslizumab (antibody, V domains shown)
VH: EVQLVESGGGLVQPGGSLRLSCAVSGLSLTSNSVNWIRQAPGKGLEWVGLIWSNGDTDYNSAIKSRFTISRDTSKSTVYLQMNSLRAEDTAVYYCAREYYGYFDYWGQGTLVTVSS
VL: DIQMTQSPSSLSASVGDRVTITCLASEGISSYLAWYQQKPGKAPKLLIYGANSLQTGVPSRFSGSGSATDYTLTISSLQPEDFATYYCQQSYKFPNTFGQGTKVEVK

Experiments:
IL-5 = IL-5 (human, UniProt P05113 20-134); assay: cell-based or functional assay
IL-4Rα = IL-4Rα (UniProt P24394 26-232, limits assumed); assay: cell-based or functional assay

Sequence of IL-5 (P05113 20-134 limits assumed): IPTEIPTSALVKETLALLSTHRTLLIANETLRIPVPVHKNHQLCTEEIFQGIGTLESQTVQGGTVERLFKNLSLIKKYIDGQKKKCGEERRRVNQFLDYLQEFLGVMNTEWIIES

Binder | EC50, 中和IL-5诱导的TF-1细胞增殖 (IL-5) | EC50, 中和IL-4诱导的TF-1细胞增殖 (IL-4Rα) | EC50, 中和IL-13诱导的TF-1细胞增殖 (IL-4Rα)
B1 | 0.336 nM |  | 
B2 |  | 0.281 nM | 0.229 nM
B3 |  | 0.13 nM | 0.178 nM
B4 | 0.122 nM |  | 

Reference: patent CN117138036A (NANJING RONGJIEKANG BIOTECHNOLOGY CO LTD, dated 2023)
